Key:
[1] = biological target: T1, human Siglec-7 on cells (HEK293T-Siglec7 cells; human NK cells and other PBMC populations) (human, UniProt Q9Y286 19-467); assay: cell-based or functional assay
[2] = biological target: T2, recombinant human Siglec-7 protein (human, UniProt Q9Y286 19-353, limits assumed); assay: SPR, 'Binding of DB7.2 to Siglec-7' [panel B]
T2 construct: Used in ELISA, Western blot and SPR

[3] = biological target: T2, recombinant human Siglec-7 protein; assay: SPR, titration of anti-Siglec-7 on recombinant human Siglec-7 protein (FIG. 16B)
[4] = biological target: T1, human Siglec-7 on cells …; assay: flow cytometry on HEK293T-Siglec-7 cells, GFP against Siglec-7 staining [panel B]
Text: For the non-conjugated primary antibodies, PE-secondary anti-human (H+L) (Invitrogen) and PE/AF647-secondary anti-human F(ab′)₂ (Jackson ImmunoResearch Laboratories Inc) were used. Live/Dead Violet viability kit (Invitrogen) was used to exclude dead cells from analysis. For Fluorescence cytometry staining on PBMCs, the following antibodies were used: CD69 PE-Cy5 (clone FN50), PD-1 BV421 (clone EH12.2H7), CCR7 APC-Cy7 (G043H7), CD19 BV785 (clone HIB19), CD27 BV650 (clone 0323), CD56 BV570 (clone HCD56), CD16 BV711 (clone 3G8), CD21 PE-Cy7 (clone BU32) and Siglec-7 (clone 6-434) from Biolegend; CD11c BUV395 (clone B-ly6), CXCR5 BV750 (clone RF8B2), CD3 BUV805 (UCHT1), CD45 AF700 (clone HI30), CD127 PE-CF594 (clone HIL-7RM21), CD25 BUV737 (clone 2A3), CD8 BUV496 (clone RPA-T8), HLA-DR BV605 (clone G46-6), CD38 BUV661 (clone HIT2), CD14 BV480 (clone MP9), CD45RA BUV563 (HI100), CD4 BB790 (clone SK3), CD15 FITC (clone HI98), CD103 BB700 (clone Ber-ACT8), CD161 APC (clone DX12) from BD Biosciences. […] Cells were washed with PBS and incubated with 0, 1 or 10 ug/ml of DB7.2 Siglec-7 antibody diluted in fluorescence-activated cell sorting (FACS) buffer for 20 minutes. […]

[5] = biological target: T2, recombinant human Siglec-7 protein; assay: ELISA on recombinant human Siglec-7, dilution series (axis 'Dilutions', no concentration unit) [panel A]

T1 sequence (Q9Y286 19-467): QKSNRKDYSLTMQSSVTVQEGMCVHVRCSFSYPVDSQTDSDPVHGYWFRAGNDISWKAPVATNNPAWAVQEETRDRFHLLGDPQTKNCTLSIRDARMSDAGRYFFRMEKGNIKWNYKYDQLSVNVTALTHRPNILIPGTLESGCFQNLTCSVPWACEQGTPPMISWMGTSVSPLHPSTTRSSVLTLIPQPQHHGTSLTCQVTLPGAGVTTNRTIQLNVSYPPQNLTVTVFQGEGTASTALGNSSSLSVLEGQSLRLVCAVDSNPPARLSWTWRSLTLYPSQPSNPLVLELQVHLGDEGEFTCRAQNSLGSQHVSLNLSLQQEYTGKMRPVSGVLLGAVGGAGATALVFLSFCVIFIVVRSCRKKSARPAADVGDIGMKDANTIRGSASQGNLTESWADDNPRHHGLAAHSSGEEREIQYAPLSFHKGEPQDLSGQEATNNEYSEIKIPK
T2 sequence (Q9Y286 19-353 limits assumed): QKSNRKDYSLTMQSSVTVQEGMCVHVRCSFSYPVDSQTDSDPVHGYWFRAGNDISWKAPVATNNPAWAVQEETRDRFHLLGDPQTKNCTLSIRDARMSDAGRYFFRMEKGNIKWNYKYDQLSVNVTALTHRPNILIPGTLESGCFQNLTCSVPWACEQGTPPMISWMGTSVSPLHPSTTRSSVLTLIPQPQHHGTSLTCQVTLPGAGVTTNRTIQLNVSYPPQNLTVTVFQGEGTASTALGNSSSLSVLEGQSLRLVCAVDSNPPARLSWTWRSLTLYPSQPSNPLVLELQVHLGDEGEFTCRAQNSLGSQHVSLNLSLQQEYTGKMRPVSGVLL

binding result [4]	binding result [5]	Binder	IC50, killing of OVISE cells in the presence of human PBMCs (xCELLigence, cell index vs dose at 72 h) [1] [nM]	also measured
–	–	DB7.2 (DB-S7-2) Siglec-7 MAb (antibody, human IgG1, V domains shown, Expressed as human IgG1; The VH is the same as that of DB-S7-1 and DB-S7-7; also called DB7.2 Siglec-7 DMAb; DB7.2 anti-Siglec-7 antibody) VH: QVQLVESGGGVVQPGRSLRLSCAASGFTFRTDAMHWVRQAPGKGLEWVAVIWYDGSIKYHADSVKGRFTISRDNSKNTLYLEMNSLRAEDTAVYYCARDRSNSLDHWGQGILVSVSS VL: not shown	82.7	EC50, killing of PEO4 cells in the presence of human PBMCs (xCELLigence) [1]: 68.9 nM; koff [2]: 3.6e-05 s⁻¹; kon [2]: 830000 M⁻¹ s⁻¹; t1/2 [2]: 5.33 h; Kd [3]: 0.044 nM
–	–	DB7.2_TM Mod (antibody, human IgG1, V domains shown) VH: QVQLVESGGGVVQPGRSLRLSCAASGFTFRTDAMHWVRQAPGKGLEWVAVIWYDGSIKYHADSVKGRFTISRDNSKNTLYLEMNSLRAEDTAVYYCARDRSNSLDHWGQGILVSVSS VL: not shown	192	–
binds	binds	DB7.1 (DB-S7-1) Siglec-7 MAb (antibody, human IgG1, V domains shown, Expressed as human IgG1 (HC + LC plasmids in pVax1, Expi293F cells)) VH: QVQLVESGGGVVQPGRSLRLSCAASGFTFRTDAMHWVRQAPGKGLEWVAVIWYDGSIKYHADSVKGRFTISRDNSKNTLYLEMNSLRAEDTAVYYCARDRSNSLDHWGQGILVSVSS VL: not shown	–	–
binds	binds	DB7.7 (DB-S7-7) Siglec-7 MAb (antibody, human IgG1, V domains shown, Expressed as human IgG1) VH: QVQLVESGGGVVQPGRSLRLSCAASGFTFRTDAMHWVRQAPGKGLEWVAVIWYDGSIKYHADSVKGRFTISRDNSKNTLYLEMNSLRAEDTAVYYCARDRSNSLDHWGQGILVSVSS VL: not shown	–	–

Reference: US20250236670A1 (WISTAR INSTITUTE OF ANATOMY AND BIOLOGY, published 2025)
